{"source": "paper PMC9017247", "key": {"[1]": {"molecular_target": "recombinant SARS-CoV-2 spike protein (SARS-CoV-2) (UniProt P0DTC2)", "assay": "QCM-D; spike protein (400 ug/mL) immobilised by EDC/NHS on an 11-MUA carboxylated gold sensor, ethanolamine-blocked; 0.5-10 uM rGRFT flowed in turn at 20 uL/min, 1x PBS"}, "[2]": {"molecular_target": "recombinant SARS-CoV-2 spike protein (SARS-CoV-2) (UniProt P0DTC2)", "assay": "ITC; MicroCal ITC200; 50 uM rGRFT injected (2 uL, 120 s intervals) into the cell with 280 uL of 1 uM spike protein; 1x PBS, pH 7.4"}}, "data": [{"substance": "recombinant griffithsin lectin protein (rGRFT) (from UniProt P84801 1-121) (natural protein)", "values": [{"measurement": "Kd", "setting": "[1]", "result": 1.6, "unit": "µM"}, {"measurement": "Kd", "setting": "[2]", "result": 9.9, "unit": "µM"}, {"measurement": "stoichiometry N (rGRFT per spike)", "setting": "[2]", "result": 6}]}]}
